Laboratory results taken from paper PMC6668441, “Comparative Study of Subcutaneous and Orthotopic Mouse Models of Prostate Cancer: Vascular Perfusion, Vasculature Density, Hypoxic Burden and BB2r-Targeting Efficacy” (Scientific Reports, 2019).

Legend:
[1] = test system: orthotopic PC-3 xenografts; experiment: Biodistribution, BB2r-targeted uptake, orthotopic PC-3 xenograft model
Description: (§1) For the subcutaneous model, 5-week old female SCID mice were inoculated in the flanks with 5 × 10^6 PC-3 cells (American Type Culture Collection (ATCC), VA) in Matrigel®. The tumor size was monitored by caliper. For the generation of the orthotopic model, the PC-3-Luc cells were selected by 0.5 µg/mL puromycin twice before inoculation. The male 6-weeks SCID mice were anesthetized, the muscles of the abdomen area were cut after retracting the skin, and the prostate gland exposed. 50 μL of PC-3-Luc cell suspension at 0.5 × 10^6/mL in Matrigel® was injected into a dorsal prostatic lobe. The wound was closed in two layers and the skin was clipped. Animals were given analgesic drugs for 3 days and the tumors were monitored by an IVIS optical imaging system.
(§2) The mice were injected, monitored and dissected in the lab with the temperature of 23 °C and 17% relative humidity. All animals were awake until sacrifice. The body weight, tumor volume and tumor luminescence of the mice were recorded every three days. At four-to-seven weeks post-xenograft implantation, the mice were divided into three groups by tumor volume: <300, 300–700 and >700 mm^3 in both animal models. […] Each mouse (average weight: 20 g for female mice and 25 g for male mice) was treated with pimonidazole solution (80 mg/kg in PBS) via intraperitoneal injection. […] After an additional 1 h, the mice were injected intravenously with a PBS solution containing 10 µCi (370 kBq) of [^99mTc]NaTcO4 and 15 mg/kg Hoechst 33342. The animals were sacrificed 5 minutes later, and their tissues collected. The excised tissues were weighed, the radioactivity for each tissue was measured by γ-counter and the percentage injected dose per gram (%ID/g) was calculated for each tissue. […]
(§3) Establishment of Stably Transfected PC-3-Luc Cells
(§4) To generate the PC-3-Luc cells, we utilized pre-made lentivirus particles encoding luciferase and GFP (EF1a-Luciferase (firefly)-2A-GFP (Puro), AMSBIO) for transfection. Briefly, normal PC-3 cells were seeded in a 24-well plate using 0.5 mL of medium containing 0.5 × 10^5 cells/mL and incubated overnight. The medium was removed and replaced with 0.5 mL of fresh medium pre-mixed with 2.5 ȝL TransduxTM. To each well was added 2 ȝL of the lentivirus particle solution and swirled to mix. The plate was returned to the incubator and cultured for 3 days. Once the cells grew to confluence, they were harvested and transferred to larger plates (from 6-well plates to 60 mm dishes). 1.5 mL of suspended cells in PBS at a concentration of 5 × 10^6/mL was sorted by the FACS method to give the GFP positive (PC-3-Luc) cells that were returned to culture for in vitro and in vivo studies.
(§5) The normal PC-3 cells and PC-3-Luc were cultured in our laboratory, as per ATCC protocols, in Ham’s F-12K medium containing 10% FBS, 2.5 mM L-glutamine, 15 mM HEPES and 0.5 mM sodium pyruvate. Cells were incubated at 37 °C […]
(§6) All animal experiments were performed in accordance with the NIH animal use guideline and protocol approved by the […]

[2] = as above; details: male, NOD SCID, mouse, iv, total radioactivity, orthotopic model, 10 µCi i.v., 1 h 5 min p.i., mean ± SD; for dose excreted at 65 min: urine and faeces, excretion (urine and fecal material)
Description: as §1, §2, §3, §4, §5, §6

CSCC[C@H](NC(=O)[C@H](CC(C)C)NC(=O)[C@H](Cc1c[nH]cn1)NC(=O)CNC(=O)[C@@H](NC(=O)[C@H](C)NC(=O)[C@H](Cc1c[nH]c2ccccc12)NC(=O)[C@H](CCC(N)=O)NC(=O)CCOCCOCCOCCOCCNC(=O)[C@@H](CO)NC(=O)[C@@H](CO)NC(=O)[C@@H](CO)NC(=O)[C@@H](CO)NC(=O)[C@@H](CO)NC(=O)CN1CCN(CC(=O)O)CCN(CC(=O)O)CCN(CC(=O)O)CC1)C(C)C)C(N)=O [[^177Lu]Lu-DOTA-SP714, metal not drawn]
blood retention values between the two models ([1]; orthotopic versus subcutaneous): not statistically different
average tumor uptake, orthotopic versus subcutaneous model ([1]; tumor volume 300–700 mm^3, p = 0.011): 1.6 fold
average tumor uptake, orthotopic versus subcutaneous model ([1]; tumor volume <300 mm^3, p = 0.0055): 1.9 fold
average tumor uptake, orthotopic versus subcutaneous model ([1]; tumor volume >700 mm^3, p = 0.34): 1.2 fold
tissue uptake at 65 min ([2]; blood, 10 uCi, blood uptake, tumor volume 300-700 mm^3): 0.33 ± 0.14 %ID/g
tissue uptake at 65 min ([2]; blood, 10 uCi, blood uptake, tumor volume <300 mm^3): 0.27 ± 0.19 %ID/g
tissue uptake at 65 min ([2]; blood, 10 uCi, blood uptake, tumor volume >700 mm^3): 0.57 ± 0.12 %ID/g
tissue uptake at 65 min ([2]; bone, 10 uCi (370 kBq), bone uptake, tumor volume 300-700 mm^3): 0.46 ± 0.22 %ID/g
tissue uptake at 65 min ([2]; bone, 10 uCi (370 kBq), bone uptake, tumor volume <300 mm^3): 0.29 ± 0.22 %ID/g
tissue uptake at 65 min ([2]; bone, 10 uCi (370 kBq), bone uptake, tumor volume >700 mm^3): 0.53 ± 0.24 %ID/g
tissue uptake at 65 min ([2]; brain, 10 uCi (370 kBq), brain uptake, tumor volume 300-700 mm^3): 0.06 ± 0.03 %ID/g
tissue uptake at 65 min ([2]; brain, 10 uCi (370 kBq), brain uptake, tumor volume <300 mm^3): 0.03 ± 0.01 %ID/g
tissue uptake at 65 min ([2]; brain, 10 uCi (370 kBq), brain uptake, tumor volume >700 mm^3): 0.06 ± 0.02 %ID/g
tissue uptake at 65 min ([2]; heart, 10 uCi (370 kBq), heart uptake, tumor volume 300-700 mm^3): 0.39 ± 0.49 %ID/g
tissue uptake at 65 min ([2]; heart, 10 uCi (370 kBq), heart uptake, tumor volume <300 mm^3): 0.13 ± 0.09 %ID/g
tissue uptake at 65 min ([2]; heart, 10 uCi (370 kBq), heart uptake, tumor volume >700 mm^3): 0.3 ± 0.17 %ID/g
tissue uptake at 65 min ([2]; kidney, 10 uCi (370 kBq), kidney uptake, tumor volume 300-700 mm^3): 4.8 ± 4.92 %ID/g
tissue uptake at 65 min ([2]; kidney, 10 uCi (370 kBq), kidney uptake, tumor volume <300 mm^3): 3.4 ± 0.92 %ID/g
tissue uptake at 65 min ([2]; kidney, 10 uCi (370 kBq), kidney uptake, tumor volume >700 mm^3): 5.98 ± 3.08 %ID/g
tissue uptake at 65 min ([2]; large intestine, 10 uCi (370 kBq), large intestine uptake, tumor volume 300-700 mm^3): 4.52 ± 1.31 %ID/g
tissue uptake at 65 min ([2]; large intestine, 10 uCi (370 kBq), large intestine uptake, tumor volume <300 mm^3): 2.06 ± 1.02 %ID/g
tissue uptake at 65 min ([2]; large intestine, 10 uCi (370 kBq), large intestine uptake, tumor volume >700 mm^3): 4.07 ± 1.91 %ID/g
tissue uptake at 65 min ([2]; liver, 10 uCi (370 kBq), liver uptake, tumor volume 300-700 mm^3): 0.4 ± 0.18 %ID/g
tissue uptake at 65 min ([2]; liver, 10 uCi (370 kBq), liver uptake, tumor volume <300 mm^3): 0.26 ± 0.07 %ID/g
tissue uptake at 65 min ([2]; liver, 10 uCi (370 kBq), liver uptake, tumor volume >700 mm^3): 0.52 ± 0.19 %ID/g
tissue uptake at 65 min ([2]; lung, 10 uCi (370 kBq), lung uptake, tumor volume 300-700 mm^3): 0.92 ± 0.41 %ID/g
tissue uptake at 65 min ([2]; lung, 10 uCi (370 kBq), lung uptake, tumor volume <300 mm^3): 0.82 ± 0.5 %ID/g
tissue uptake at 65 min ([2]; lung, 10 uCi (370 kBq), lung uptake, tumor volume >700 mm^3): 1.28 ± 0.47 %ID/g
tissue uptake at 65 min ([2]; muscle, 10 uCi (370 kBq), muscle uptake, tumor volume 300-700 mm^3): 0.22 ± 0.1 %ID/g
tissue uptake at 65 min ([2]; muscle, 10 uCi (370 kBq), muscle uptake, tumor volume <300 mm^3): 0.23 ± 0.12 %ID/g
tissue uptake at 65 min ([2]; muscle, 10 uCi (370 kBq), muscle uptake, tumor volume >700 mm^3): 0.48 ± 0.34 %ID/g
tissue uptake at 65 min ([2]; pancreas, 10 uCi (370 kBq), pancreas uptake, tumor volume 300-700 mm^3): 40.1 ± 11.5 %ID/g
tissue uptake at 65 min ([2]; pancreas, 10 uCi (370 kBq), pancreas uptake, tumor volume <300 mm^3): 30 ± 12.5 %ID/g
tissue uptake at 65 min ([2]; pancreas, 10 uCi (370 kBq), pancreas uptake, tumor volume >700 mm^3): 37.2 ± 7.29 %ID/g
tissue uptake at 65 min ([2]; small intestine, 10 uCi (370 kBq), small intestine uptake, tumor volume 300-700 mm^3): 3.74 ± 1.15 %ID/g
tissue uptake at 65 min ([2]; small intestine, 10 uCi (370 kBq), small intestine uptake, tumor volume <300 mm^3): 2.97 ± 0.66 %ID/g
tissue uptake at 65 min ([2]; small intestine, 10 uCi (370 kBq), small intestine uptake, tumor volume >700 mm^3): 3.8 ± 1.46 %ID/g
tissue uptake at 65 min ([2]; spleen, 10 uCi (370 kBq), spleen uptake, tumor volume 300-700 mm^3): 2.02 ± 3.14 %ID/g
tissue uptake at 65 min ([2]; spleen, 10 uCi (370 kBq), spleen uptake, tumor volume <300 mm^3): 1.77 ± 1.19 %ID/g
tissue uptake at 65 min ([2]; spleen, 10 uCi (370 kBq), spleen uptake, tumor volume >700 mm^3): 2.91 ± 4.89 %ID/g
tissue uptake at 65 min ([2]; stomach, 10 uCi (370 kBq), stomach uptake, tumor volume 300-700 mm^3): 1.59 ± 0.9 %ID/g
tissue uptake at 65 min ([2]; stomach, 10 uCi (370 kBq), stomach uptake, tumor volume <300 mm^3): 1.07 ± 0.53 %ID/g
tissue uptake at 65 min ([2]; stomach, 10 uCi (370 kBq), stomach uptake, tumor volume >700 mm^3): 1.46 ± 0.62 %ID/g
tissue uptake at 65 min ([2]; tumor, 10 uCi, tumor uptake, tumor volume 300-700 mm^3): 8.55 ± 2.65 %ID/g
tissue uptake at 65 min ([2]; tumor, 10 uCi, tumor uptake, tumor volume <300 mm^3): 8.07 ± 3.23 %ID/g
tissue uptake at 65 min ([2]; tumor, 10 uCi, tumor uptake, tumor volume >700 mm^3): 11.1 ± 2.88 %ID/g
dose excreted at 65 min ([2]; 10 uCi, tumor volume 300-700 mm^3): 67.2 ± 8.53%
dose excreted at 65 min ([2]; 10 uCi, tumor volume <300 mm^3): 60.8 ± 29.3%
dose excreted at 65 min ([2]; 10 uCi, tumor volume >700 mm^3): 60.2 ± 10.8%
